From the nanobody polyreactivity screen of Harvey et al. (2022)

Assay: yeast display, Sf9 membrane polyspecificity reagent, FACS + sequencing; frameworks hold sequencing errors
Procedure, shortened: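 A synthetic nanobody library was expressed on Saccharomyces cerevisiae BJ5465 by galactose induction for 36–48 hours. The library was stained for 1 hour at 4 °C with 10% biotinylated, detergent-solubilized Sf9 membrane reagent and enriched with streptavidin microbeads before FACS. Low and high (top ~1%) gates were set on anti-HA fluorescence for expression and streptavidin fluorescence for reagent binding, and each polyreactivity label reflects the gate of origin.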

Row | Sequence | polyreactivity (PSR sort gate)
1 | QVQLVESGGGLVQAGGSLRLSCAASGITFPWYAMGWYRQAPGKERELVAAISSDADTYYADSVKGRFTISRDNAKNTVYLQMISLKPEDTAVYYCAAETFDYSRGYTAMGYWGQGTQVTVSS | high polyreactivity
2 | QFQLVESGGGLVQAGGSLRLSCAASGLTFKYYGMGWYRQAPGKERELVATISSGGRTNYADSVKGRFTISRDNAKNTVYLQMNSLKPEDTEVYYCNRPRWYGGSPYYYWGQGTQVTVSS | high polyreactivity
3 | QVQLVESGGGLVQAGGSLRLTCAASGSTLSTYVMGWYRQAPGKERELVAAITRRGGITYYADSVKGRFTISRDNAKNTVYLQMNSLKPEDTAVYYCAATGVRSKRLASQWKLYYWGQGTQVTVSS | high polyreactivity
4 | QVQLVESGGGLVQAGGSLRLSCAASGSTFAKYAMGWYRQAPGKERELVASIRLSGGSTYYADSVKGRFTISRDNAKNTVYLQMNSLKPEDTAVYYCNKPFPYYPDGPNGYDYWGQGTQVTVSS | low polyreactivity
5 | QVQLVESGARLVQAGGSLRLSCDASGITFFAYAIGWYRQAQGKERELVAAISCNTGRTYYADSVKGRFTISRDNAKITVYLQMNSLKPEDTAVYYCAKRGVGVGYNYWGQGTQVTVSS | high polyreactivity
6 | QVQLVESGGGLVQAGGSLRLSCAASGSTFSSNAMGWYRQAPGKEREFVAAISRRTGSTYYADSVKGRFTISRDNANNTVYLQMNSLKPEDTAVYYSAATGEKLARSSFGYWGQGTQVTVSS | low polyreactivity
7 | QVQLVESGGGLVQAGGSLRLSCAASGFTFRVYAMGWYRQAPGKERELVAAISSGGSTNYADSVKGRFTISRDNAKNTVYLQMNSLKPEDTAVYYCAARQRYYSERPQYSGFYYWGQGTQVTVSS | high polyreactivity
8 | QVQLEESGVGLVQAGGSLRLSCPASGRIIYRNAIVWYSQAPGKERELVAAITGSGGITYYADSVKGRFTISRDNAKNTVYLLMNSLKPEVTAVYYCAARAKFLSVPTYDNWGQGTQVTVSS | high polyreactivity
9 | QVHLVESGGGLVQAGGSLRLSCAASGSIFTRYVMGWYRQAPGKERELVAAISGRGSSTYYADSVKGRFKISRDYAKNTVYLQMNSLKPEDTAVYYCAAEIVVFYSEGQRNTFYYWGQGTQVTVSS | high polyreactivity
10 | QVQLVESGGGLVQAGGSLRLSCAASGRTFFYYAMGWYRPAPGKERELVAGSTNYADSVKGRFTISRDNAKNTVYLQMNSLKPEETAVYYCNADPDDYWGQGTQVTVSS | low polyreactivity
11 | QVQLVESGGGLVQAGGSLRLICAASGRYYAMGWYRQAPGKERELVAAISSGGSTNYADSVKGRFTISRDNAKNTVYLQMNSLKPEDTAVYYCAALIRQLRYYLYYYWGQGTQVTVSS | high polyreactivity
12 | QVQLEESGGGLFQAGGSLRLSCAASGRTFPGNAMGWYRQAPGKERELVAAISYSGGRTYYADSVKGRFTISRDNAKNTVYLQMNSLKPEDTAVYYCNAWARLGRYEYWGQGTQVTVSS | high polyreactivity
13 | QVQLVESGGGLVQAGGSLRLSCSASGTTFRYNAMGRYRQAPGKERQLVAAITSGGTTNYADSVKGRFTISRDNAKNTVYLQMNSLKPEDTAVYYCAKKRPGFLRYGSIGEFQYDYWGQGTQVTVSS | low polyreactivity
14 | QVQLVESGGGLVQAGGSLRLSCDASGRIFAYYARGWYRQAPGKERELVAAITTNGGGTYYADSVKGRFTISRDNAKNTVYLQMNSLKPEDTGVYYCNAVKQRSSIFDYWGQGTQVTVSS | low polyreactivity
15 | QVQLVESGGGLVQAGGSLRLSCAASGSIFGINVMGWYRQAPGKERELVAAISRSGSSTYYADSVKGRFTISRDNAKNTVYLQMNSLKPEDTAVYYCNADRSTWTVLVWEYDYWGQGTQVTVSS | low polyreactivity
16 | QVQLVESGGGLVQAGGSLRLSCAASGGIFDRYAMGWSRQAPGKERELVAVISGSVNTYADSVKGRFTISRDNAKNTFYLQMNSLKPEDTAVYYCATQFEGTSGFNYWGQGTQVTVSS | low polyreactivity
17 | QVQLVESGGGLVQAGGSLRLSCAASGSTFGYNAMGWYRQAPGKEREFVARIRSSGSTTYADSVKGRFTISRDNAKNTVYLQMNSLKPEDTAVYYCAATFRGRYAYYYWGQGTQVTVSS | high polyreactivity
18 | QVQLVESGGGLVQAGGSLRLSCAASGSIFYRNAMGWYRQAPGKERELDAAIDSGDSTNYADSVKGRFTISRDNAKNTVYLQMNSLKPEDTAVYYCAARVIYYYGSGPYDYWGQGTQVTVSS | low polyreactivity
19 | QVQLVESGGGLVQAGGSLRLSCAASGSTFTRYAMGWYRQAPGKERELVAAITRSGGGTYYADSVKGRFTSSRDNAKNTVYLQLNSLKPEDTAVYYCAKDIVFYGSPGYGYWGQGTQVTVSS | high polyreactivity
20 | QVKLVESVGALVQAGGSHRLSCAASGNTFPWYVLGWYRHATGKERELLAAITSSGSTTYYADSVKGRFTISRDNAKNTVYLQMNSLKPDDNAVYYCAARNYGPYDYWGPGTQVTVSS | low polyreactivity
21 | QVQLVESGGGLVQAGGSLRLSCAASGRIFRYNAMGWYRQAPGKERELVAAITRSGGRTYYADSVKGRFTISRDNAKYTVYLQMNSLKPEDTAVYYCAADKYPSSPYVGDVDYWGQGTQVTVSS | high polyreactivity
22 | QVQLVESGGGLFQAGGSLRLSCAASGFTFARYAMGRSRTAPAKERELVARISWSGGSTYYADSVKGRFTISRDNAKNTVYLLMYSLKTEDTEVYYCAADGWYYRYPRDDYWGQGTQETVSS | low polyreactivity

Row | Sequence | polyreactivity (PSR sort gate)
23 | QVQLVESGGGLVQAGGSLRLSCAASGSTFYIYAMGWYRQSPGKERELVAVITRGGSTYYADSVKGRFTISRDNAKNTVYLQMNSLKPEDTAVYYCAARYWNGTRDTYGSWGQGTQVTVSS | high polyreactivity
24 | QVQLVETGGGLVQAGGTLRLSCAPSGLIVDLYAMGCYRQAPGKERELVATISGSGGSTYYADSEKGRFTISRDNAKNTVYLQMNSLKPEDTAFYYCAAVSVSSWYDDCGQGTQVTVSS | low polyreactivity
25 | QVQLVESGGGLVQAGGSLRLSCAASGSILLYYVMGWYRQAPGKERELVAGISSSGRTYYADSVKGRFTISRDNAKNTVYLQMNSLKPEDTAVYYSAKKYWRGDVRVGYWGQGTQVTVSS | high polyreactivity
26 | QVQLVESGGGLVQAGGSLRLSCAACGFTFWDYAMGWYSQAPGKERELVAAISDNDGSTDYADSVKGRFTISRDNAKNTVYLQMNSLKPEDSAVYYCNAEIELPSKEGDYWGQGTQVTVSS | low polyreactivity
27 | QVQLVESGGGLVQAGGSLRLSCAASGFTFVSYAMGWYRQAPGKERELVAVIDNSDGDTYYADSVKGRFTISRDNAKNTVYLQMNSLKPEDTAVYYCAADAVIEWTDWYSAWWYYYWGQGTQVTVSS | low polyreactivity
28 | QVQLVESGGGLVQAGGSLRLSCAASGGTLQGNAMGWYRQAPGKERELVAAISSRGGRTYYADSVKGRFTISRDNANNTVYLQMNSLKPEDTAVYYCAAVQKGDSTLLRTKGGYWGQGTQVTVSS | high polyreactivity
29 | QVQHVESGGGLVQAGGSLRIRCAASGSIFDLNAMGWYRPAPGKEMELVAASSSGGGTYYADSVKGRFTISRDNAKKTVYLLMISLKPEDTALSDCNRVTRWTYNYWGQGSQVTVSS | high polyreactivity
30 | QVQLVESGGGLVQAGGSLRLSCAASGGTFYYYAMGWSRQAPGKERELVAAISWSGVSTSYADSVKGRFTISRDNANNTVYLQMNSLKPEDTAVYYCAAGPFYYTGYEGVYWGQGTQVTVSS | high polyreactivity
31 | QVQLVESGGGLVQAGGSLRLSCAPSGSIFGGYAMGWYRQAPGKERELVAAITWGGGSTYYADSVKGRFTISRDNAKNTVYLQMISLKPEATAVYYCAADRSWYDWEDDYWGQGTQVTVSS | low polyreactivity
32 | QVQLGESGGGLVQAGGSLRLSCAASGFIFGYYAMGWYRQAPGKERELVAAINYNDDSTYYADSVKGRFTISRDNAKNTVYLQMNSLKPEDTAVYYCAAGVWYGYYVSIYLDYDYWGQGTQVTLSS | low polyreactivity
33 | QVQLVESGGGLVQAGGSLRLSCAASALTLRHYAMGWYRQAPGKERELVARIRISGRTYYADSVKGRFTISRDNAKNTVYLQMNSLKPEDTAVYYCAKVQFATSPPGLTLSYYYWGQGTQVTVSS | high polyreactivity
34 | QVQLVESGGGLVQAGGSLRLSCAASGRTIDLNAMGWYRQAPGKERELVAAITSSGSTNYADSVKGRFTISRDNAKNTVYLQMNSLKPDDTAVYYCNKDPIYSAEYWVGSVGFDYWGQGTQVTVSS | low polyreactivity
35 | QVQLVESGGGLVQAGGSLRLSCAASGSIFNGYTMGWYRQAPRKERELVAAISSRGGITYYADSVKGRFTISRDNAKNTVYLQMNSLKPEDTAVYYCAKTSGYYQAGSLKYGYWGQGTQVTVSS | high polyreactivity
36 | QVQLVESGGGLVQAGGSLRLSCAASGSIFRSYAMGWYRQAPGKERELVAAITSSSGSTYYADSVKGRFTISRDNAKNTVYLQMNSLKPEDTAVYYCNAPYWKSRFRAYYHWGQGTQVTVSS | high polyreactivity
37 | QVQLVESGGGLVQAGGSLRLSCAASGLTFGRNAMGWYRQSPGKERELVAAITFNGGSTYYADSVKGRFTISRDNAKNTVYFQMNSLKPEDTAVYYCAARLWRRSRFDYWGLGTQVTVSS | high polyreactivity
38 | QVQLVESGGGLVQAGGSLRLSCAASGNTFGYYAMGWYRQAPGKERELVAAINFGGDTSYADSVKGRFTISRDNAKNTVYLQMNSLKPEDTAVYYCAADGSYWIYADGDYWGQGTQVTVSS | low polyreactivity
39 | QVQLVESGGGLVQAGGSLRLSCAASGSIFYYYAMGWYRQAPGKERELVAAIDSGGSTYYADSVKGRFTISRDNAKNTVYLQMNSLKPEDTAVYYCAADTYWFVYYGYDYWGLGTQVTVSS | low polyreactivity
40 | QVQLVESGGGLVQAGGSLRLSCAASGFIFYYYTMGWYTQAPGKERELVAAISKSGGNTYYADSVKGRFTISRDNAKNTVYLQMNSLKPEVTAVYYCAASRYNTVTYYYSGQGTQVTVSS | high polyreactivity
41 | QVQLVESGGGLVQAGGSLRLSCAASGSTLANYAMGWYRQAPGKERELVAAINSGGSTYYADSVKGRFTISRDNAKNTVYLQMNSLKPEDTAVYYCAAETPNYYGRWEPVWHYYWGQGTQVTVSS | high polyreactivity
42 | QVQLVESGGGLVQAGGSLRLSCAASGRTFKYYAMGWYRQAPGKERELVAAISLSSGRTYYADSVKGRFTISRDIAKNTVYLQMNSLKPEDTAVYYCARVTTGGYEYWGQGTQVTVSS | high polyreactivity
43 | QVQLVESGGGLVQAGGSLRLSCAASGITFGFNAMVWYRQAPGKETELVAAITYRGGSTYYADSVKGRFTISRDNAKNTVYLQMNSLKPEDTAVYYCAADIGRHTDNYDPRYDYWGQGTHVTVSS | low polyreactivity
